Data set [1] concerns HeLa Kyoto. Briefly: melting temperature (median over replicates), in situ; higher = more thermally stable.
Data set [2] deals with HeLa Kyoto. As to the kind of experiment: solubility in G1/S (NP-40 vs SDS abundance) (log2 ratio); higher = more soluble. The note with it: cell cycle stage: G1/S.
Data set [3] concerns HeLa Kyoto. Briefly: thermal stability score vs G1/S (z-score of summed log2 fold changes over temperatures); higher = more thermally stable than in G1/S.
The test system of data set [4] is HeLa Kyoto. As to the kind of experiment: solubility change mitosis vs G1/S (difference of NP-40 vs SDS log2 ratios) (log2 ratio difference); higher = more soluble in mitosis.
The mark [5] stands for this setting: cell cycle stage: early G1 (4.5 h after nocodazole release).
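For melting temperature (median over replicates), in situ in this document: HeLa Kyoto cells synchronized by double thymidine or nocodazole block, proteins quantified by TMT10plex mass spectrometry, three independent biological replicates.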
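For solubility change mitosis vs G1/S (difference of NP-40 vs SDS log2 ratios) in this document: synchronized HeLa Kyoto cells (double thymidine block for G1/S, nocodazole release for mitosis), protein amounts in NP-40 versus SDS lysates quantified by mass spectrometry, three biological replicates.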
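For solubility in G1/S (NP-40 vs SDS abundance) in this document: HeLa Kyoto cells arrested at G1/S by double thymidine block, proteins quantified by TMT10plex mass spectrometry in mild NP-40 versus SDS extracts, three biological replicates.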
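For thermal stability score vs G1/S (z-score of summed log2 fold changes over temperatures) in this document: synchronized HeLa Kyoto cells, proteins quantified by TMT10plex mass spectrometry, three biological replicates, mitosis taken 0.5 h after nocodazole release, G1/S directly after double thymidine block.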

Turning to “MFIKGRAPRAPPRERRRATRGGLRQVVAPPRALGSTSRPHFRRASVCRRRCRKSGGLLAASRKMAAAAVNGAAGFSSSGPAATSGAVLQAATGMYEQLKGEWNRKSPNLSKCGEELGRLKLVLLELNFLPTTGTKLTKQQLILARDILEIGAQWSILRKDIPSFERYMAQLKCYYFDYKEQLPESAYMHQLLGLNLLFLLSQNRVAEFHTELERLPAKDIQTNVYIKHPVSLEQYLMEGSYNKVFLAKGNIPAESYTFFIDILLDTIRDEIAGCIEKAYEKILFTEATRILFFNTPKKMTDYAKKRGWVLGPNNYYSFASQQQKPEDTTIPSTELAKQVIEYARQLEMIV [PSMD8]”, the melting temperature in data set [1] (cell cycle stage: G1/S) was 53.4 °C; in data set [1] (cell cycle stage: mitosis), 54.5 °C. Besides, the “solubility in G1/S (log2)” value in data set [2] is 0.278. Also, the values for the thermal stability score in data set [3] (setting [5]) and in data set [3] (cell cycle stage: mitosis) were -1.02 and -0.0502, respectively. Moreover, the “solubility change mitosis (log2)” value in data set [4] was determined as 0.0108.

On to “MFKVIQRSVGPASLSLLTFKVYAAPKKDSPPKNSVKVDELSLYSVPEGQSKYVEEARSQLEESISQLRHYCEPYTTWCQETYSQTKPKMQSLVQWGLDSYDYLQNAPPGFFPRLGVIGFAGLIGLLLARGSKIKKLVYPPGFMGLAASLYYPQQAIVFAQVSGERLYDWGLRGYIVIEDLWKENFQKPGNVKNSPGTK [APOO]”, for which the results for the melting temperature in data set [1] (cell cycle stage: G1/S) and in data set [1] (cell cycle stage: mitosis) were 54.8 °C and 56 °C, respectively. In data set [2], the “solubility in G1/S (log2)” value was 0.444. For the same sequence, the figures for the thermal stability score in data set [3] (setting [5]) and in data set [3] (cell cycle stage: mitosis) were -1.86 and -2.5, respectively. Moreover, the “solubility change mitosis (log2)” value in data set [4] stood at 0.185.

Regarding “MFLPHMNHLTLEQTFFSQVLPKTVKLFDDMMYELTSQARGLSSQNLEIQTTLRNILQTMVQLLGALTGCVQHICATQESIILENIQSLPSSVLHIIKSTFVHCKNSESVYSGCLHLVSDLLQALFKEAYSLQKQLMELLDMVCMDPLVDDNDDILNMVIVIHSLLDICSVISSMDHAFHANTWKFIIKQSLKHQSIIKSQLKHKDIITSLCEDILFSFHSCLQLAEQMTQSDAQDNADYRLFQKTLKLCRFFANSLLHYAKEFLPFLSDSCCTLHQLYLQIHSKFPPSLYATRISKAHQEEIAGAFLVTLDPLISQLLTFQPFMQVVLDSKLDLPCELQFPQCLLLVVVMDKLPSQPKEVQTLWCTDSQVSETTTRISLLKAVFYSFEQCSGELSLPVHLQGLKSKGKAEVAVTLYQHVCVHLCTFITSFHPSLFAELDAALLNAVLSANMITSLLAMDAWCFLARYGTAELCAHHVTIVAHLIKSCPGECYQLINLSILLKRLFFFMAPPHQLEFIQKFSPKEAENLPLWQHISFQALPPELREQTVHEVTTVGTAECRKWLSRSRTLGELESLNTVLSALLAVCNSAGEALDTGKQTAIIEVVSQLWAFLNIKQVADQPYVQQTFSLLLPLLGFFIQTLDPKLILQAVTLQTSLLKLELPDYVRLAMLDFVSSLGKLFIPEAIQDRILPNLSCMFALLLADRSWLLEQHTLEAFTQFAEGTNHEEIVPQCLSSEETKNKVVSFLEKTGFVDETEAAKVERVKQEKGIFWEPFANVTVEEAKRSSLQPYAKRARQEFPWEEEYRSALHTIAGALEATESLLQKGPAPAWLSMEMEALQERMDKLKRYIHTLG [C1ORF112]”, the melting temperature amounted to 47.9 °C in data set [1] (cell cycle stage: G1/S) and 48.9 °C in data set [1] (cell cycle stage: mitosis). In addition, the “solubility in G1/S (log2)” value in data set [2] was -0.208. Further, the thermal stability score in data set [3] (setting [5]) was 0.547; in data set [3] (cell cycle stage: mitosis), 1.23. In addition, the “solubility change mitosis (log2)” value in data set [4] is -0.0761.

Take “MFLTRSEYDRGVNTFSPEGRLFQVEYAIEAIKLGSTAIGIQTSEGVCLAVEKRITSPLMEPSSIEKIVEIDAHIGCAMSGLIADAKTLIDKARVETQNHWFTYNETMTVESVTQAVSNLALQFGEEDADPGAMSRPFGVALLFGGVDEKGPQLFHMDPSGTFVQCDARAIGSASEGAQSSLQEVYHKSMTLKEAIKSSLIILKQVMEEKLNATNIELATVQPGQNFHMFTKEELEEVIKDI [PSMA5]”: the melting temperature in data set [1] (cell cycle stage: G1/S) was 55.4 °C; in data set [1] (cell cycle stage: mitosis), 53.9 °C. Moreover, the “solubility in G1/S (log2)” value in data set [2] was 0.313. In addition, the thermal stability score came to 1.94 in data set [3] (setting [5]) and 2.76 in data set [3] (cell cycle stage: mitosis). Further, the “solubility change mitosis (log2)” value in data set [4] is -0.0172.

For “MFLVNSFLKGGGGGGGGGGGLGGGLGNVLGGLISGAGGGGGGGGGGGGGGGGGGGGTAMRILGGVISAISEAAAQYNPEPPPPRTHYSNIEANESEEVRQFRRLFAQLAGDDMEVSATELMNILNKVVTRHPDLKTDGFGIDTCRSMVAVMDSDTTGKLGFEEFKYLWNNIKRWQAIYKQFDTDRSGTICSSELPGAFEAAGFHLNEHLYNMIIRRYSDESGNMDFDNFISCLVRLDAMFRAFKSLDKDGTGQIQVNIQEWLQLTMYS [CAPNS1]”, the melting temperature in data set [1] (cell cycle stage: G1/S) amounted to 55.4 °C; in data set [1] (cell cycle stage: mitosis) it was 55 °C. For the same sequence, the “solubility in G1/S (log2)” value in data set [2] was 0.395. Further, the thermal stability score was 1.02 in data set [3] (setting [5]) and 1.65 in data set [3] (cell cycle stage: mitosis). In data set [4], the “solubility change mitosis (log2)” value was -0.0652.

As for “MFRGLSSWLGLQQPVAGGGQPNGDAPPEQPSETVAESAEEELQQAGDQELLHQAKDFGNYLFNFASAATKKITESVAETAQTIKKSVEEGKIDGIIDKTIIGDFQKEQKKFVEEQHTKKSEAAVPPWVDTNDEETIQQQILALSADKRNFLRDPPAGVQFNFDFDQMYPVALVMLQEDELLSKMRFALVPKLVKEEVFWRNYFYRVSLIKQSAQLTALAAQQQAAGKEEKSNGREQDLPLAEAVRPKTPPVVIKSQLKTQEDEEEISTSPGVSEFVSDAFDACNLNQEDLRKEMEQLVLDKKQEETAVLEEDSADWEKELQQELQEYEVVTESEKRDENWDKEIEKMLQEEN [SYAP1]”, the melting temperature was 53.2 °C in data set [1] (cell cycle stage: G1/S) and 53.5 °C in data set [1] (cell cycle stage: mitosis). Moreover, the “solubility in G1/S (log2)” value in data set [2] is 0.391. The thermal stability score in data set [3] (setting [5]) was -0.579; in data set [3] (cell cycle stage: mitosis), -1.49. The “solubility change mitosis (log2)” value in data set [4] is 0.264.

With “MFSKFTSILQHAVEALAPSLPLQEDFVYHWKAITHYYIETSDDKAPVTDTNIPSHLEQMLDILVQEENERESGETGPCMEYLLHHKILETLYTLGKADCPPGMKQQVLVFYTKLLGRIRQPLLPHINVHRPVQKLIRLCGEVLATPTENEEIQFLCIVCAKLKQDPYLVNFFLENKMKSLASKGVPNVISEDTLKGQDSLSTDTGQSRQPEELSGATGMEQTELEDEPPHQMDHLSTSLDNLSVTSLPEASVVCPNQDYNLVNSLLNLTRSPDGRIAVKACEGLMLLVSLPEPAAAKCLTQSTCLCELLTDRLASLYKALPQSVDPLDIETVEAINWGLDSYSHKEDASAFPGKRALISFLSWFDYCDQLIKEAQKTAAVALAKAVHERFFIGVMEPQLMQTSEMGILTSTALLHRIVRQVTSDVLLQEMVFFILGEQREPETLAEISRHPLRHRLIEHCDHISDEISIMTLRMFEHLLQKPNEHILYNLVLRNLEERNYTEYKPLCPEDKDVVENGLIAGAVDLEEDPLFTDISPENTLPNQEWLSSSPPATPDHPKNDGKTEVHKIVNSFLCLVPDDAKSSYHVEGTGYDTYLRDAHRQFRDYCAICLRWEWPGSPKALEKCNLEAAFFEGHFLKVLFDRMGRILDQPYDVNLQVTSVLSRLSLFPHPHIHEYLLDPYVNLAPGCRSLFSVIVRVVGDLMLRIQRIQDFTPKLLLVRKRLLGLEPEGPIIDHITLLEGVIVLEEFCKELAAIAFVKYHASSTP [FAM160B1]”, the melting temperature turned out to be 52.1 °C in data set [1] (cell cycle stage: G1/S) and 51.1 °C in data set [1] (cell cycle stage: mitosis). Moreover, the “solubility in G1/S (log2)” value in data set [2] was found to be 0.0585. For the same sequence, the thermal stability score in data set [3] (setting [5]) was -0.501; in data set [3] (cell cycle stage: mitosis) it was -0.078. The “solubility change mitosis (log2)” value in data set [4] is -0.212.

Take “MFSRAGVAGLSAWTLQPQWIQVRNMATLKDITRRLKSIKNIQKITKSMKMVAAAKYARAERELKPARIYGLGSLALYEKADIKGPEDKKKHLLIGVSSDRGLCGAIHSSIAKQMKSEVATLTAAGKEVMLVGIGDKIRGILYRTHSDQFLVAFKEVGRKPPTFGDASVIALELLNSGYEFDEGSIIFNKFRSVISYKTEEKPIFSLNTVASADSMSIYDDIDADVLQNYQEYNLANIIYYSLKESTTSEQSARMTAMDNASKNASEMIDKLTLTFNRTRQAVITKELIEIISGAAALD [ATP5C1]”: the figures for the melting temperature in data set [1] (cell cycle stage: G1/S) and in data set [1] (cell cycle stage: mitosis) were 58 °C and 56.5 °C, respectively. Also, in data set [2], the “solubility in G1/S (log2)” value came to 0.283. Moreover, the results for the thermal stability score in data set [3] (setting [5]) and in data set [3] (cell cycle stage: mitosis) were -0.727 and -0.47, respectively. In data set [4], the “solubility change mitosis (log2)” value is -0.0222.

For “MFVARSIAADHKDLIHDVSFDFHGRRMATCSSDQSVKVWDKSESGDWHCTASWKTHSGSVWRVTWAHPEFGQVLASCSFDRTAAVWEEIVGESNDKLRGQSHWVKRTTLVDSRTSVTDVKFAPKHMGLMLATCSADGIVRIYEAPDVMNLSQWSLQHEISCKLSCSCISWNPSSSRAHSPMIAVGSDDSSPNAMAKVQIFEYNENTRKYAKAETLMTVTDPVHDIAFAPNLGRSFHILAIATKDVRIFTLKPVRKELTSSGGPTKFEIHIVAQFDNHNSQVWRVSWNITGTVLASSGDDGCVRLWKANYMDNWKCTGILKGNGSPVNGSSQQGTSNPSLGSTIPSLQNSLNGSSAGRKHS [SEH1L]”, the results for the melting temperature in data set [1] (cell cycle stage: G1/S) and in data set [1] (cell cycle stage: mitosis) were 54.8 °C and 51.6 °C, respectively. In addition, the “solubility in G1/S (log2)” value in data set [2] is -0.79. The thermal stability score in data set [3] (setting [5]) was -3.19; in data set [3] (cell cycle stage: mitosis), -4.18. Besides, the “solubility change mitosis (log2)” value in data set [4] was 0.295.

For the sequence “MFVQEEKIFAGKVLRLHICASDGAEWLEEATEDTSVEKLKERCLKHCAHGSLEDPKSITHHKLIHAASERVLSDARTILEENIQDQDVLLLIKKRAPSPLPKMADVSAEEKKKQDQKAPDKEAILRATANLPSYNMDRAAVQTNMRDFQTELRKILVSLIEVAQKLLALNPDAVELFKKANAMLDEDEDERVDEAALRQLTEMGFPENRATKALQLNHMSVPQAMEWLIEHAEDPTIDTPLPGQAPPEAEGATAAASEAAAGASATDEEARDELTEIFKKIRRKREFRADARAVISLMEMGFDEKEVIDALRVNNNQQNAACEWLLGDRKPSPEELDKGIDPDSPLFQAILDNPVVQLGLTNPKTLLAFEDMLENPLNSTQWMNDPETGPVMLQISRIFQTLNRT [UBAC1]”, the melting temperature in data set [1] (cell cycle stage: G1/S) is 50.9 °C; in data set [1] (cell cycle stage: mitosis), 50.6 °C. The “solubility in G1/S (log2)” value in data set [2] turned out to be 0.313. The figures for the thermal stability score in data set [3] (setting [5]) and in data set [3] (cell cycle stage: mitosis) were 1.16 and 0.844, respectively. Moreover, the “solubility change mitosis (log2)” value in data set [4] is -0.0991.

(Values after the supplement of paper PMC5998384.)
